Reference: the supplement of paper PMC11908140

B1: library; numbered along this chain (parent)
chain: MRKPRAAVGSGHRKQAASQEGRQKHAKNNSQAKPSACDGLARQPEEVVLQASVSSYHLFRDVAEVTAFRGSLLSWYDQEKRDLPWRRRAEDEMDLDRRAYAVWVSEVMLQQTQVATVINYYTGWMQKWPTLQDLASASLEEVNQLWAGLGYYSRGRRLQEGARKVVEELGGHMPRTAETLQQLLPGVGRYTAGAIASIAFGQATGVVDGNVARVLCRVRAIGADPSSTLVSQQLWGLAQQLVDPARPGDFNQAAMELGATVCTPQRPLCSQCPVESLCRARQRVEQEQLLASGSLSGSPDVEECAPNTGQCHLCLPPSEPWDQTLGVVNFPRKASRKPPREESSATCVLEQPGALGAQILLVQRPNSGLLAGLWEFPSVTWEPSEQLQRKALLQELQRWAGPLPATHLRHLGEVVHTFSHIKLTYQVYGLALEGQTPVTTVPPGARWLTQEEFHTAAVSTAMKKVFRVYQGQQPGTCMGSKRSQVSSPCSRKKPRMGQQVLDNFFRSHISTDAHSLNSAAQ

Variants of: B1
Assay: 8OG:A repair function score (normalized; synonymous = 0, nonsense = -1) (normalized log-likelihood score); higher = more repair activity (WT-like)
Conditions: with 8OG:A DNA repair reporter (GFP) in HEK-293 MUTYH KO cells
In short: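 Per-tile Rosace fitness scores were converted to a normalized repair function score anchored on synonymous and nonsense distributions. That scale puts synonymous medians at 0 and nonsense medians at -1. Variants with starting counts under 300 counts per million were discarded. Input came from sorting viable mCherry+ MUTYH knockout HEK-293 cells, carrying lentiviral MUTYH cDNA NNN codon-scan libraries in 10 pg/ml doxycycline and an 8OG:A GFP repair reporter, into GFP+ and GFP− bins at 72 h, three replicates per tile, followed by tile amplicon sequencing.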
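Note: cells sorted at 72 h after reporter transfection.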

8OG:A repair function score: each site, then its substitutions
L290: M -0.0856 | G -0.0171 | R 0.0252 | Y -0.0918 | S -0.022 | D -0.0753 | N 0.00556 | K 0.0241 | V -0.0591 | P -0.0572 | I 0.0122 | F -0.0363 | T 0.0127 | E -0.0564 | Q -0.0401 | H -0.0116 | C -0.0194 | W -0.0672 | A -0.0163
V284: R -0.149 | C -0.0207 | M -0.00894 | L -0.0493 | T 0.0102 | A 0.00964 | F -0.00936 | D -0.0734 | P -0.32 | E -0.033 | N -0.0944 | H -0.12 | Y -0.0139 | Q -0.0561 | K -0.0279 | S -0.0426 | W -0.0406 | I -0.0683 | G -0.236
D300: A -0.149
S292: F -0.0271 | V -0.0158 | W -0.0286 | D -0.0297 | R -0.0254 | T -0.0314 | L -0.0154 | N -0.0335 | A -0.0285 | M -0.0481 | C -0.0199 | Y 0.00788 | K -0.0316 | P -0.0306 | I 0.000296 | Q -0.0703 | E -0.0389 | G -0.00959 | H -0.00367
Q286: T -0.00617 | D -0.0961 | I -0.0426 | K -0.000545 | C -0.00905 | W -7.92e-05 | G -0.0661 | V -0.0346 | A -0.00891 | M -0.0133 | Y -0.0193 | P -0.093 | E -0.0273 | H -0.0639 | F -0.00865 | S -0.023 | N 0.0116 | L -0.0175 | R 0.00446
P299: E -0.036 | Q -0.00604 | Y -0.00692 | G -0.0369 | F 0.00405 | S -0.0568 | C -0.0402 | W -0.0506 | T -0.0424 | H 0.0118 | N -0.099 | D 0.0184 | V -0.0192 | A -0.0132 | R -0.000753 | M -0.0166 | L -0.0164 | K -0.0515 | I -0.00528
L295: T -0.00105 | V 0.0106 | Y -0.0185 | N -0.00265 | R -0.0249 | I 0.00398 | K -0.0388 | C -0.0222 | D -0.0433 | P 0.0289 | F -0.0139 | M -0.0314 | W -0.0272 | A -0.00496 | E -0.0096 | Q -0.0618 | S -0.0013 | H -0.0248
S298: H 0.0283 | C -0.0366 | K -0.0342 | V 0.00493 | Q -0.0174 | Y -0.0154 | E -0.0588 | M -0.0331 | I 0.0307 | D -0.0341 | R -0.0386 | T 0.00821 | W -0.00249 | N -0.0213 | F -0.0178 | P 0.0228 | G 0.0202 | L 0.0173 | A -0.000852
R283: Y -0.0964 | I -0.0881 | S -0.203 | K -0.0478 | T -0.308 | A -0.145 | F -0.16 | L -0.0781 | M -0.0516 | P -0.625 | D -0.662 | W -0.115 | G -0.364 | N -0.173 | H -0.102 | Q -0.0283 | V -0.0935 | C -0.167 | E -0.246
G297: D -0.0132 | V 0.0126 | Q -0.0223 | K 0.0192 | Y -0.0582 | M -0.00568 | S -0.00596 | E -0.0194 | I -0.0605 | F 0.016 | P -0.0639 | R -0.0667 | T 0.0201 | C 0.00942 | A -0.00898
